The values below come from publication PMC9888389.

The assay deals with T1, Atg7, endogenous in mouse heart, Q9D906.
T1 chain: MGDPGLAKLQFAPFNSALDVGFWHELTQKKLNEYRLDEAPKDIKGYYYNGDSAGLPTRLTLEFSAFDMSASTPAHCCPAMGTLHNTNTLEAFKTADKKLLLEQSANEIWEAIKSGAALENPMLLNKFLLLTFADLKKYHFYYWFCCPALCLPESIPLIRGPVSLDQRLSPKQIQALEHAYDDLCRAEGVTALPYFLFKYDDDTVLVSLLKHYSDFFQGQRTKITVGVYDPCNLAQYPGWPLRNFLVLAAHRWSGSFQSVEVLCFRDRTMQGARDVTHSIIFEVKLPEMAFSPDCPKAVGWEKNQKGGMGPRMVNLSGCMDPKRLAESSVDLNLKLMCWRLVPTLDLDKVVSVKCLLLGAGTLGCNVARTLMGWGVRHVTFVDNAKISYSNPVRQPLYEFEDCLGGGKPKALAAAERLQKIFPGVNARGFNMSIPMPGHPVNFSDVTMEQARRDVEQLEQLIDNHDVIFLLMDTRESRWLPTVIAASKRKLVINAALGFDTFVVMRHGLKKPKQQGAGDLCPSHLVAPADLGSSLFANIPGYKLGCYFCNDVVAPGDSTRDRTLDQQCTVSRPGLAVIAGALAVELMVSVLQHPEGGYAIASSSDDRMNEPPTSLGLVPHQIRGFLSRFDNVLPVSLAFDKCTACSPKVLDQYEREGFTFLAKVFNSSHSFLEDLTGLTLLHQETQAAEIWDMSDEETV
Description: coimmunoprecipitation with anti-FLAG-agarose beads, immunoblot for Atg7, quantified. As to conditions: chain shown with the change, Tg-Flag-Trx1 C35S mouse heart, n = 4, read off a plot. (A western blot detects proteins with antibodies after separation by electrophoresis.)

B1: Trx1 (wild type) C35S (protein)
chain: MVKQIESKTAFQEALDAAGDKLVVVDFSATWCGPSKMIKPFFHSLSEKYSNVIFLEVDVDDCQDVASECEVKCMPTFQFFKKGQKVGEFSGANKEKLEATINELV
On to B1, for which the response (Arbitrary unit) by setting is: (ischemia for 20 minutes) 0.8; (sham operation) 0.55.
